Laboratory results reported in the domain aggregation screens of Martell et al. (2025).

Assay: soluble fraction after stress (log2 fold change); higher = more stays soluble; pooled small domains, quantitative proteomics
Conditions: stress: pH 4
In short: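 Small protein domains from pooled custom libraries were exposed to pH 4, then quantified with high-throughput quantitative proteomics. The fold change in how much of each domain remains soluble is read as aggregation propensity. It is given as log2, with higher values meaning more stayed soluble.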

Compared with “HMGNRQEQVRIIRDLWRQLADAGQPVPAKHLTLDLDALDATQLTKLEDQAHGWLAKLSAQADLADAA”, “HMGNTMIVILKHEARQEQIDRLKQFLLGMGLRIDESKGENSTILGLVGDTTRVDADLISSLDAVEAVRRV” is lower in “soluble fraction (log2)” value: 0.22 for the first, -0.626 for the second.

“HMGNWENVEKETTEAIMAVKNGEAVWVDLAPANRMIRQMQHELVEQYGLLSQSYGKEPKRRIRIFQNP” and “HMGPDALSIGRRVRQVRTARGMTLDELAAAVSRAPSQLSMIETGKREPKLSLLQAIARALGTTIDALLT” are within 0.2 log units of each other in “soluble fraction (log2)” value: 0.0117 for the first, 0.126 for the second.

First: HMGPDGLFAKFREPETGKDLLITQNVFVEQVLIKGVLTRTLTDAEANTYRAPFVNPEKRFPIYVWPNELP
Second: HMGPEAFPVPYIVDIELDRAIYVIEQSGFIVGQKLEANDDNVPRGFVISQNPAAGTKLGPNSVVDLVISSG
The “soluble fraction (log2)” value of the first is higher: -0.0131 for the first, -0.893 for the second.

“HMGPEQLIGKTGIAASELAPRGEVKIEGQIWRAETVGDHVKQGEPVEVVSREGLILRVKPKHPQTRG” and “HMGPEVQLAYSEFLAKVKVGEVNDVMVKGNEIHGHFSDGRTFSTYSPNDPDLVEKLNKNKVMIKAAPP” are within 0.2 log units of each other in “soluble fraction (log2)” value: -0.0209 for the first, -0.0878 for the second.

First: HMGPFYFDQDGKAYSGLLNRNGEILYFADPFNAAVKNTTKTIDGKTYTFNQNGRATSIDGIPLEPP
Second: HMGPGDTTIPTTIIGMSLEEARNELSAAGLLVARIIPVDSNSRTGTVLKITPDAGSIIKAGSGVELEIAS
The “soluble fraction (log2)” value of the first is lower: -0.17 for the first, 0.206 for the second.

Compared with “HMGPGFVGGSVLSGGNRGEGDPVANAQVFITDMDDNVVAFTKTDAEGNFDMTNLAYGDYKMYVDILNK”, “HMGPGSYVVNVKPYAYVSINGRDYGRTPVGPIRLDPGTYKVVFTHEHRPSFSRTIVVEAGRETFETFPYPG” is higher in “soluble fraction (log2)” value: -0.741 for the first, -0.107 for the second.

Compared with “HMGPLPIDSRYFNNLVPYTGITHVNSVIPEAERHIGLTVVVKTGSTYSEYWYRTGVTNSSLELKT”, “HMGPLYARVKAIVLARIMGGDWPPGTALPAEMELARALGVSQGTVRKALDALTAEQVVVRRQGSGTYVAE” is higher in “soluble fraction (log2)” value: -0.726 for the first, -0.158 for the second.

Going from “HMGPNYYDILEIPTDASPSEITQAFRKKALEWHPDKNPNNLEEATSRFIEIVEAYRVLSSKDSKLQYDTG” to “HMGPSVGMTVGEMERDLIFRTLETVGDNRTKAADMLGISIRTLRNKLNEYREAGFEWPRKAG”, the “soluble fraction (log2)” value rises from -0.422 to -0.0611.

First: HMGQAVTMLKAGRLLANAKGTGAPVRSLEPGMLLYPTGVKEGTMWEVEDEMGNKGWVNSTLMETA
Second: HMGQAVTVPELKGLSFDEAIEKLDDAGLKYEVVDSNYVEDMKPGTVFETLPEAGSRVKPRRIVFLTINAF
The “soluble fraction (log2)” value of the first is higher: -0.284 for the first, -0.689 for the second.

“HMGQDTTIVVRRGESLLGIAARLLPATDFYTTGELAEGIRTASGMENDRLIPGQTLRVPLNSG” and “HMGQGEISVPRLEGLSLRETSELLGLFGLRLEAAGSGIALSQNPPAGARVKAGDVIQVDFGEPGN” are within 0.2 log units of each other in “soluble fraction (log2)” value: 0.0588 for the first, 0.0931 for the second.

First: HMGQHSAELKLHPQDLGQVTISMKVEDNQAQLQMVSGHGHVRAALEAALPQLRSQLADSGIQLTQSSIS
Second: HMGQISDEETLKTVASRIIDANPDEARKYRSGKTGLLGFFVGQVMKATQGEANPKLASRIVKELLE
The “soluble fraction (log2)” value of the first is lower: -0.223 for the first, at least 0.43 for the second.

“HMGQLIVTIPNFERRPAEQAIQKLEELGLVPEEKQIYHDDIPAGSVIYTDPSKDSQVNAGTKVYVYVSLG” and “HMGQMGHAVVAKTDLAVGTPLTRDLVAVREVPVEWLHSSAITPEQFERAAGAVLAQPARGGEPLVWSQLEE” are within 0.2 log units of each other in “soluble fraction (log2)” value: -0.0832 for the first, -0.201 for the second.

Compared with “HMGQPRPLTAEDFDFLSDDEIAEMRKALSNGEMLRLRELIAQIGEKRPFLAERLLVLAKQYNYEDLSRLLE”, “HMGQQPPVTEIYKNHDGNKDGLLEAGEVTGSRYARQFPRWDVNGDQKVSPQEVIAFRKRFGIAADGTLL” is higher in “soluble fraction (log2)” value: -0.831 for the first, 0.0862 for the second.

For “HMGQQTVEPLSRRELEVLSLLAKGLSNQQIADRLVISVRTVKKHVENIHGKLGVQSRTQAVARARELGLV”, the “soluble fraction (log2)” value was -0.688.
